The source of these data is US20220127365A1 (DREN BIO, published 2022).

Usually EC50 stands for the concentration at which the effect is half-maximal. By EC50 (read off the curve) is commonly meant the concentration giving half of the maximal effect. A high value points to weaker potency.

In test [1] the target is T1, human CD94 (human, UniProt Q13241 1-179).
T1 construct: whole, on cells; Endogenous CD94 on primary cells (healthy-donor PBMC NK cells, CLPD-NK and T-LGLL patient cells), where it pairs with NKG2A or NKG2C; also called KLRD1; Natural killer cells antigen CD94
T1 sequence (looked up): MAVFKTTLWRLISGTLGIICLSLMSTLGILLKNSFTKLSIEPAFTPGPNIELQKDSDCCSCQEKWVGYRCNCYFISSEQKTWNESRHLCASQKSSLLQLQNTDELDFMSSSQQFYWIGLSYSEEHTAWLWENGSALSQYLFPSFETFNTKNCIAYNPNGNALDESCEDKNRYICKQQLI
Briefly: HLA-E tetramer blocking on healthy-donor PBMCs, flow cytometry; competitor HLA-E tetramer. The protocol:
Healthy donor PBMCs were seeded in 96-well plates at a density of 100,000 cells per well, incubated with human Fc block (Biolegend) and cell viability dye (Thermo Fisher) for 30 minutes on ice and protected from light. The cells were washed once with FACS buffer (PBS with 2% IgG low FBS). anti-CD94 antibodies at EC80 concentrations were incubated with cells for 30 minutes on ice and protected from light. After incubation with the anti-CD94 antibodies, the cells were washed and incubated with HLA-E tetramer PE (Creative Biolabs), anti-CD3 pacific blue-labelled, and anti-CD56 FITC-labelled antibodies (Biolegend) for 30 minutes on ice and protected from light. The cells then received a final wash in FACS buffer before quantification on the Cytoflex (Beckman Coulter). All data acquisition and fluorescence compensation were performed using CytoFlex (Beckman Coulter, Atlanta, Ga.). Data analysis was performed using FlowJo software. NK cells were identified through gating on lymphocytes on the forward and side scatter, followed by doublet and dead cell exclusion, and gated on the CD3−CD56+ population. HLA-E expression was then quantified on the CD3−CD56+NK cell population. Percent blocking was calculated as 100−((percent HLA-E positive for anti-CD94 antibody)/(percent HLA-E positive for isotype)*100).
Healthy donor PBMCs were incubated with anti-CD94 antibodies. PE labeled HLA-E tetramer was then incubated with cells and antibody mixture and detected by flow cytometry.
Percent blocking was calculated as 100−((percent HLA-E positive for anti-CD94 antibody)/(percent HLA-E positive for isotype)*100). If an antibody blocked more than 20% of HLA-E binding, it was considered a ligand-blocking antibody.

Test [2] deals with T2, CD94 homodimer on BaF3 cells (UniProt Q13241 1-179).
T2 construct: whole, on cells
T2 sequence (looked up): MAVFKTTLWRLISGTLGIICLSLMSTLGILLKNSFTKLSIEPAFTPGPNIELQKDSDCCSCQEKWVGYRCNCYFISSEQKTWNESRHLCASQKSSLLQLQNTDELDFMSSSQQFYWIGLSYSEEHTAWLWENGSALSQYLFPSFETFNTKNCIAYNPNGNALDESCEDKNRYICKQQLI
Description: flow cytometry titration (50 nM to 0.02 nM) on BaF3 cells, anti-human AF647 secondary antibody; BaF3 cells overexpressing CD94 homodimer. The protocol:
(§1) BaF3 cells overexpressing CD94 homodimer (top panel), CD94/NKG2A heterodimer (lower left panel), and CD94/NKG2C heterodimer (lower right panel) were incubated with unconjugated ATX-130 antibody in a dilution series from 50 nM to 0.02 nM. Secondary anti-human antibody labeled with Alexa Fluor 647 was used to detect ATX-130 binding on cells.
(§2) The affinity of the antibody clone ATX-130 on CD94 homodimer and heterodimer was also assessed by flow cytometry analysis.

In test [3] the target is T1, human CD94. Briefly: flow cytometry titration (100 nM to 0.046 nM) on healthy-donor PBMCs, CD3-CD56bright NK cells; column 'Affinity on human NK cells (nM)'.
Test [4] addresses T3, CD94/NKG2A heterodimer on BaF3 cells (UniProt Q13241 1-179; P26715 1-233, limits assumed).
T3 construct: whole, on cells
Description: flow cytometry titration (50 nM to 0.02 nM) on BaF3 cells, anti-human AF647 secondary antibody; BaF3 cells overexpressing CD94/NKG2A heterodimer. The protocol:
as §1, §2

Test [5] concerns the target T4, CD94/NKG2C heterodimer on BaF3 cells (UniProt Q13241 1-179; P26717 1-231, limits assumed).
T4 construct: whole, on cells
Description: flow cytometry titration (50 nM to 0.02 nM) on BaF3 cells, anti-human AF647 secondary antibody; BaF3 cells overexpressing CD94/NKG2C heterodimer. The protocol:
as §1, §2
Background: In flow cytometry, cells or beads pass a laser one at a time.

The target of another test is T5, cynomolgus CD94 (cynomolgus monkey).
T5 construct: whole, on cells; The construct expressed in HEK293 cells is not described further; also called cyno CD94; cynomolgus monkey CD94
Briefly: flow cytometry on HEK293 cells overexpressing cynomolgus CD94; unconjugated antibody in a dilution series, Alexa Fluor 647 anti-human secondary antibody. The protocol: For human NK cell binding, PBMCs were freshly isolated from healthy donors and incubated with unconjugated antibodies in a dilution series from 100 nM to 0.046 nM. Secondary anti-human antibody labeled with Alexa Fluor 647 was used to detect binding on CD3−CD56bright NK cells. For cynomolgus CD94 binding, HEK293 cells overexpressing cynomolgus CD94 were incubated with unconjugated antibodies in a dilution series from 100 nM to 0.046 nM. Secondary anti-human antibody labeled with Alexa Fluor 647 was used to detect binding on the cells.

T4 sequence (P26717 whole entry, one chain of several): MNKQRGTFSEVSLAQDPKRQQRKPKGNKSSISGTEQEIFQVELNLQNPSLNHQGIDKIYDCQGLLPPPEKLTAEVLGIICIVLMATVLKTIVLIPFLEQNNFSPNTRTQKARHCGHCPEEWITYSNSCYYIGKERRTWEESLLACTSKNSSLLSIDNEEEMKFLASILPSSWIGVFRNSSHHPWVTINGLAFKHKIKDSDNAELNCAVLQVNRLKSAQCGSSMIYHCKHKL
T3 sequence (P26715 whole entry, one chain of several): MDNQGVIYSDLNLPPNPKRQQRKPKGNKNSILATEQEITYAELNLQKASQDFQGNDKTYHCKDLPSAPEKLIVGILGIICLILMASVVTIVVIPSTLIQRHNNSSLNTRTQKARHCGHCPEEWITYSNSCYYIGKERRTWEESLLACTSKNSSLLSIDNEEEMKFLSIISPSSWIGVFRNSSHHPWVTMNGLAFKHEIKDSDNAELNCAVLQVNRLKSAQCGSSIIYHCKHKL

B1: anti-CD94 antibody ATX-130 (antibody, human IgG1, V domains shown)
VH: EVQLLESGGGLVKPGGSLRLSCAASGFTFSSYSMNWVRQAPGKGLEWVSSISTSSNFIYYADSVKGRFTISRDNAKNSLYLQMNSLRAEDTAVYYCARDLGRYYYYMDVWGKGTTVTVSS
VL: DIVMTQSPSSLSASVGDRVTITCRASQSISSWLAWYQQKPGKAPKSLIYAASSLQSGVPSKFSGSGSGTDFTLTISSLQPEDVATYYCQKYNSAPFTFGPGTKVDIK
notes: also called hATX-130
Regarding B1, the “percent HLA-E blocking” value with human CD94 [1] turned out to be 0%. For the same molecule, the EC50 in test [2] stood at 0.3 nM; with human CD94 [3], 0.6 nM; in test [4], 0.8 nM; in test [5], 1.8 nM. In addition, the half-maximal effective concentration (EC50 (read off the curve)) with cynomolgus CD94 is about 0.7 nM.
